Molecular target: T1, TRF1 (MTRF12) (Mus musculus, UniProt P70371 SEQ:1-421)
T1 sequence: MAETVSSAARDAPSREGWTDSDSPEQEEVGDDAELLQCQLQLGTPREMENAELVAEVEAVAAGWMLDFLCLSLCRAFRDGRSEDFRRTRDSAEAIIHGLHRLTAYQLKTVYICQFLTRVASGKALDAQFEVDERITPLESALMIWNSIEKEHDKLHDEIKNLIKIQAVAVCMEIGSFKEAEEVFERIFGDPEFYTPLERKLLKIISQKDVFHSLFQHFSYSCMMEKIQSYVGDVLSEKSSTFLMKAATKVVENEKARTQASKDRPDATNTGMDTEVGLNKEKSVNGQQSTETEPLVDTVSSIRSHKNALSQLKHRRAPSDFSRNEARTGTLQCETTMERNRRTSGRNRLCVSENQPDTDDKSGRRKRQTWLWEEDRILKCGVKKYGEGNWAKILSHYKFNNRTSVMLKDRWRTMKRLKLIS
Experiment: EMSA; reticulocyte lysate
Details: chain copies: 2; label: labelled
Source text: Figure 6: FIG. 6 depicts a gel-shift experiment showing telomeric repeat binding activity of protein encoded by the mouse MTRF12 cDNA. The cDNA was transcribed using T3 RNA polymerase and translated in a rabbit reticulocyte lysate. The probe is a $(TTAGGG)12$-containing restriction fragment. Competitions were done with plasmids containing long arrays of telomeric DNAs with the indicated sequence. Gel-shift methods are as described by (Zhong et al, 1992). […] Shown is two interphase nuclei in which the anti-FLAG antibodies detect a speckled TRF pattern (green) against the background of DAPI stained DNA (blue). […] Shown is a metaphase spread in which the anti-HA antibody detects TRF at each chromosome end (green). The DNA is stained with DAPI (blue).
The mouse cDNA (MTRF12) contained its own initiator codon and was transcribed and translated without further modification using the T3 promoter in its pBluescript vector. Similar to the human cDNA, a ~60 kD protein was synthesized that bound TTAGGG repeats but not TTGGGG or TTAGGC repeats (FIG. 6).

B1: (TTAGGG)12 restriction fragment (dsDNA)
DNA 1: GTACCCGGGGATCGTGACTCTAGAGGGGCCCTAACCCTAACCCTAACCCTAACCCTAACCCTAACCCTAACCCTAACCCTAACCCTAACCCTAACCCTAACCCTAACCCGGGTCGAATTCGATCTCTAGAGTCGACCTGCAGGCATGC
DNA 2: GCATGCCTGCAGGTCGACTCTAGAGATCGAATTCGACCCGGGTTAGGGTTAGGGTTAGGGTTAGGGTTAGGGTTAGGGTTAGGGTTAGGGTTAGGGTTAGGGTTAGGGTTAGGGTTAGGGCCCCTCTAGAGTCACGATCCCCGGGTAC
- binding result: binds

— patent US6297356, “Telomere repeat binding factors and diagnostic and therapeutic use thereof” (The Rockfeller University)
